Experimental data from a protein production outcome set (Wang et al. 2014).

Assay: label from the status in PepcDB records

Sequence	protein production
MMFFQVHPHLTDLVIRTLQATWQQFPWLGQEDIALTLLVYPPPIPVNTGGALTAAEFWQYLIPGAHYRGDVPMYPASVVKLFYLVACHEWLHSGMLQPDAELERAMRDMIVDSSNDATSLVVDMLTGTTSGPVLPPEPFRTWQYQRNIVNRYFQSLGWPELTQINVNQKTWCEGPYGREQEFVGRDRQNANRLTTNATAKLIHSIVGGVAVSASASQGMMELMERSLDPELLAQDPENQVQGFLGEGLPPGAKLWSKAGLTSWVRHDAAYIELPDRCPYTLVVFMENSTASKNTEVLPFISRQIASGIPTLEGAGVL	failed
MGRYKDETPAVRVYTVCDESRYMIVRNVPALGCGDDLMRLFMTYGEVEEFAKRKLDESSFLGNRLQISYAPEYENVNDTKDKLESRRKEVLARLNPQKEKSTSQVTKLAGPALTQTDNVSSQRREMEYQFHRGNAPVTRVSSDQEYFASSSMNQTVKTVREKLNKTREENISSLSHCKQIEESGNQKRLQPSSQTQPEESGNQKRLQPSSQIQPDLKRTRVDNRRRI	failed
MHSPQISPPIAPSTPLLAGWRSAGKAPEAAIRGEAVSLQPLDAPRHGAALFRLFAGDDSHWEHLPYGPFEDEDAFITWLALTVAQSDTALYVVCAKDSDQALGFLGYRQMVQAHGAIEIGHVNFSPALRRTRLATEAVFLLLKTAFELGYRRCEWRCDSRNAASAAAARRFGFQFEGTLRQAMVVKRRNRDTHVFSMLDGEWDALK	not failed
MPLPPDITFDSLALIKMHSQNMKRILEVTLAKFTVNLSIVTVYRYLTARAYLKKNIEAEFEILKDIYNIVPLLDDIAIKAAQIEANLIKKEITLDMEDIITATTAIYTNSLLVTDDPKRYEPIRRFGLDTMPLDKFIKEVELMVEKELI	not failed
MADSKEKLFSDFPAVSTEQWMEKITADLKGADFEKKLVWRTNEGFKVKPFYRQEDLEGLKTTEGLPGEFPYVRGTKKNDNTWFVRQEIKVECPKEANAKALDILNKGVDSLGFYVKKKDLSPEYIETLLNDICAECIELNFSTCQGHTVELAKLLVAYFQKKGYDLTKLQGSVNYDPMGKMMVKGKDLSNFITTAKELVEVLAPLPKFRCICVNAIELNNAGSYISQELGYALAWGNEYLSKLVEAGVPAALAAKKIKFNFGISSNYFLEIAKFRAARMLWADIVKEYHPQCNRQPECPNKAEDGTCLCACKMVAHAETSTFNLTLFDAHVNLLRTQTEAMSAALAGVNSITVTPFDKTYETPDDFSERIARNQQLLLKEECHFNKVVDPAAGSYFIENLTISIATQAWELFLKVEDEGGMLEAVKAGKVQEAINASNKARHDSVSKRKEILLGTNQYPNFNEKAGEKAPVEAKCCCGGNHDSCEKPFATLNFDRAASQFEALRLQTEKSGKRPKAFMLTIGNLAMRQARAQFSCNFLACAGYEVIDNLGFPTVEAGVEAAMKAGADIVVICSSDDEYAEYAIPAFKALDGRAIFIVAGAPACMEELKAAGIENFIHVRVNVLDTLKEYNAKLGIK	failed
MRSISTGRMIDDSSDSVKGSVVWVPAKSIWITTMTVVAVVGGPLTFSWSAVIVFVLSTAITICLGHSVGMHRLLIHRSFSAPLWLEHLLVYLGTLVGMAGPFGMIYAHDIRDWAQRQRDCHDLYAHRRSFFVDALWQMHCAVALDEPPRFVVEERARHDRFYRLLEATWMAQQIPLALLLFSLGGLPWLVWGIAVRISVSLTGHWLVGHFAHRNGHQGWSVDDVAVQGYNLPRFGLVTFGESFHGNHHAFPESARLGIEPGQLDLGWHFIRLLAGLGLASAIKLPHTIVPRDGLRRVEVSGDTGEDHPVGQR	failed
MSKKQKPTGNTGRKNQIKGKYAERSRKNGFGKFCLILQVIMSAAFMGVLVLLDMLPLKYLALAALILFFLWCITFTTQAVRKKKGVTGKVYSILLIAVLAVGTYYIAKTNDMIAAITSGGSKVDKMVVAVLKDDPAETLEDASDYEFGVQFNTGAENMKAAVMDIQDQIGDISTTEYKSVQEQAEALISGEVDAIIYNQSYTELMENAVEGYNDQIRIIYKHEIETKFDFGGSAKDDSLTKKPFTVYISGIDTYGDDADDDRDSIRSDVNIIAVVNPTTHQILLITTPRDYYIPIPGISDGMNDKLTHAGTYGIDVSMETLGALYETDINYYVRLNFSSLIEIVDILGGVDVYSEYAFTTGWESGYEMEVQQGINHFDGKQALAFSRERHALEGGDNQRGKNQQAVITAMLKKVLSPTMLLKANSIINQVSQDVETNISQGQLNSLVKSQLKSGAKWTIQSVAASGTDGEDYCYSVPDMPLYVLYPDEEVVNSIVELANIVEEGGSLESGEALN	failed
MSSRPQREKSMTALTQHAPVLEIYQDIANLTSRMLAAANASNWDLVLNHGQEYVCLVERLRELEPGEPLDEAARGMKFDLLVRILENDAAVRDLALPQLARLSDLLGRMKRQQSLLATYSGKANGT	not failed
SLATCIGEKIEDFKVGNLLGKGSFAGVYRAESIHTGLEVAIKMIDKKAMYKAGMVQRVQNEVKIHCQLKHPSILELYNYFEDSNYVYLVLEMCHNGEMNRYLKNRVKPFSENEARHFMHQIITGMLYLHSHGILHRDLTLSNLLLTRNMNIKIADFGLATQLKMPHEKHYTLCGTPNYISPEIATRSAHGLESDVWSLGCMFYTLLIGRPPFDTDTVKNTLNKVVLADYEMPSFLSIEAKDLIHQLLRRNPADRLSLSSVLDHPFMSRNSSTKSKDEG	not failed
MIINITILEDNESDFITLSDSIKKWAANTGILINIIWLNSYKKFIKSLPTLKCDLFFSDIELNCNNSFTGIDACKQLRESGYTGIIIFLTAFKEYVFDGYDVQAFNYLLKPINYGTINNCLDKFIHLFSREFYYYHKGNDIISIPYNDIMYIEKNGHDVILHTTSNVFVERISLNEISKRLPVFFIRAHKSYIVNINKVLSLRINELFLPNNVTIPVSRSYLTNIKKKLLEIAR	failed
MKKEKKDYYEILGVPRDATQEEIKRAYKRLVKEWHPDRHPENRKEAEQRFKEIQEAYEVLSDPQKRAMYDRFGYVGEQPTYQETESGGFFDDIFRDFENIFNRDIFDVFFGERPHQEERREYARRGEDIRYEIEVTLSDLINGAEIPVEYERYETCPRCGGTGVEPNAGYMDCPSCGGTGRIREERRSFFGYFVSERTCERCGGTGKIPREYCHECGGSGRVLRKVRRTVKIPPNVEDGTHLRITGGGNAGYYGGPYGDLIIIVRVKPDPRFKKSGSDLVYDVTIDYLQAILGTTVEVPLPEGGTTMLKIPPGTQPETVFRLKGKGLPNRYGRRGDLIVNVHVEIPKSLSREERKVLEELAKKRGVTIG	failed
MFLNRKVELSLLENLHAEGKPKLILLYGKRRVGKTELLNEFARRHRALYLVARQEAYEGQLKKMSSEIAEFFDDDVLRHSPFQNYDALFIYLAQKETPVLFDEFPYLVEANRDLPSILQEYWDRYFSKKKTFLVLCGSSIAMMESLLGYKSPLYGRRTEQILLEPLKFREACEFFPQLEQEDKVLAYAVLGGTPAYLLEFDYGKPLLENIRDRILQKNTFLYQDTMFVLQQELTEPRVYYSIINSIAKGNTRLGEIMNDTGLEKSKITKYLSVLKDLHIIERRVPVTEKSPESSKKGIYLLKDNYFKFWFRFVFENAEYIEQGRQEKLIGDKISPVLNNFAGFAYEEIVLEYLKSSPGFPDYIFGRWWDKEEEIDVVGLDSSQNRIIFGEVKWKALTEKEARQTLNQLVEKSVEVKWGENLKSGEIQEGPEKKYMLVGKKVGGKKRLLGDGYLVLELDDLVEN	failed
MWMPPRPEEVARKLRRLGFVERMAKGGHRLYTHPDGRIVVVPFHSGELPKGTFKRILRDAGLTEEEFHNL	not failed
KQAEMEVKRESYARERSTVARIQFRLPDGSSFTNQFPSDAPLEEARQFAAQTVGNTYGNFSLATMFPRREFTKEDYKKKLLDLELAPSASVVLLP	failed
MTVLRKQAREAGVYMKVVRNTLARRAVEGTEYECLTDTFTGPSLLAFSNEHPGAAARLFKDFAKENKDFEIKAAAFEGAVTDADVLATLPTYDEAIARLMMCMKEASAGKLVRTIAAVRDQKEEAAA	failed
TTESLYAFSRKLAGTAALDDVLWATAYQIALMLKVRVVLLLPEQGRIAVKAGYPPEDQLDPADLAAANWAWENDRVAGRGSDTLPGAKRLFLPMRTGRGPIGVIGIDDDRAGALLTPDQRRLLDALTDQGALAIERVHLVEDMDRVKR	failed
MAETSIEWTDVTWNPVAGCTVLTAGCTNCYAMRMAARLEAMGVEKYAGLTRKSGGRAKWTGRIFLDRKALSIPASWSKPRRVFVNSMSDLFHSDVPTDFISDVWKVMAQTPRHTYQILTKRPDRMVEIVPGLAKLRNVWLGTSVEDARVIYRIDKLRQVPAAVRFVSFEPLIGSVSGAGLRNIHWAIVGGESGPKARSMDPAWVDEIESMCRDQGAAFFFKQWGGKNKKAAGRTLNGRLYDEMPAPSMP	failed
MKSLQIYLFLFLSVFALGACIQNDIPYPYIKGEITAFEVEGQTGDAEINKNSRTIVVEVGDEVDIEELRITRFVVNEEATYSIDEQYCVSPNKFPSAGFSALADLPAGADTRVDFSKTVPVLLRTYQDYQWMITVKQTIERVVEVENQALPAIIDDKNHTVLVYVSQKQDLSAVKITKMILGGSKATITPDPSTVTNFRRPQEFVVNRFDKEELWTVDVVRTTSTGTTGSADVWATRATLNGGMKQGTTPRVEYRKKSEDTWTVVPETDVKLESGTTFSTTLTGLQDGTDYVWRVVVEEVPSTESGFTTEKIQEIPNLNFDTWSQNPTGTFKKSWYPNADGSNSFWATGNDGVTSSLAGSRDSSTRPEEKSVVNGKAAYMVTLGSVPLVGVAAGNLFIGDYKTNAQSPLEHHHHHH	failed
MKKFSAIFGLLSVIFVIMAISQVSGLSGAITPPKIDIMVNASNGLPQDINSIIYVKNPNSFPVKVEMVTTGDLNNSKKVEVKIMKNNFTLKPGETVGVNITFTVKEKDNYEGDILTKISPVDYGDDKKGVNLKASVVLPTKVAIMVVGNEIHTKELVITAVLIISILGLGAMLIRRHL	failed
MTKIPMFELEEAIDRQPLTVAPTLPVAQVLAVMERQHSSYVLLMESNQTLVGIFTERDLVRLTAIGITITSTPIEEVATSTVTTIQESDIYDVIRTLNLFRQYNVRHLPVVNATHQLIGIMTYEGIRRLLKPIDLLRLWRVSEVMVKSIICADRYQSALSLAELMSDRLISCVVITEKDPSGFPKPIGLVTERDILHLQVQGADLSQTIAADFMGSPPVFIQASDTLWQANQYMRARKIRRLLVVDERNIMVGLLTQTSLIHMIDPVEATLTIETLQQMVGERTVALDAANEKLERKALERKRAKAALQQQIYRERLVNRTAQRIRESLQLDEILVTTVSEVRQFLKAERVLIYRFQPNQQGAIAAESTDSNQTLIQGNAELEAILQEIDPTFYSCDRIHSIPDLQAQGLELTNATLLKRLQLRASLVAPIFAQEILWGLLIVGQNSQPRRWEKLEIDLLKQLATQVGIAIQQARLYAQLAAANQQLLRLAQSDGLTGLANRRHFDQCLDIEWQRAIREQHPLGLILIDIDCFKQFNDTYGHQAGDDCLKAVATALTQVIARPADLVARYGGEEFVVILPNTNEQGILQIAESMRSAVQQLKIPHRSSSVCSSVSLSLGAVTWVPTPHKSPEALIGAADQALYQAKELGRNRVCLGGVRLLETT	failed
MNQNKITAGGLEFLVRFAAPTDRLKINDLMIDTARWLKESGSTQWSDILHGFDVHNIEQRIELGEVALFETEAGALAGAMIIRKTPSDWDTDLWEDLAIDKAYYLHRIMVSRAFSGISLSKQMIYFAEKLGIEMSVPFIRLDCIESNETLNQMYVRYGFQFSGKKNGFYLYQKELSQK	not failed
MKSKFLTMKLILGALVLSFSCACSSSNSEEAMPQTAIGRQLVESGMANDVTLDNESVVRDGIKLNELAFKTFGESQHIFVATIDLNELTFTPATKDDKNVPATGPESSAPLPIHAFAAEANGKTVWLGVNGDYYADNPRRVMGLFYKDGVCINSQYFEGHDEVLYQLKNGETYVGQADEALAHEANLLHALGGYGLLVKDGVVQNFYEEMGDLQNTHPRTSVGLSQDRKTMYVFVVDGRRKDSFFALGLTLPHLATMMKAVGCYNAINLDGGGSTTLIIRKVNDGGKPTFPILNTPADDRVPRKVTNSMLIIEKK	failed
